In the supplement of paper PMC12764529:
± gives the half width of the 95% confidence interval.

What was measured:
[1] = folding stability dG unfold from trypsin proteolysis; higher = more stable
How it was run: (§1)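 Unfolding free energy was derived, per protease or combined, against a sequence-predicted unfolded-state K50 and a shared folded-state K50, starting from K50 inferred by Bayesian fitting of sequencing counts. Digestion with trypsin and chymotrypsin was carried out on designed mini-proteins under 80 residues without cysteine in a PA-tagged cDNA display construct. Only designs with AlphaFold2 dimer inter-PAE above 15 were kept.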

[2] = folding stability dG unfold from chymotrypsin proteolysis; higher = more stable
How it was run: as §1

[3] = folding stability dG unfold (combined trypsin and chymotrypsin); higher = more stable
How it was run: as §1

Sequence	folding stability dG unfold [1]	folding stability dG unfold [2]	folding stability dG unfold [3]
SAGGSAGGSAGGSKKYFFKIKKIKVETKLEVNEDGSLTEEKKIEIEIELRELPSLEDLLSAGGSAGGSAGGS [r4_450_TrROS_Hall]	3.56 ± 0.25 kcal/mol	4.62 ± 0.17 kcal/mol	4.16 ± 0.2 kcal/mol
SAGSTTRVVELPGNKRVEVEVSTVGDSLTFTITLRDEEGNPVKTLPVAVPDPSLPVEEAIAAAVAAFLASAG [r5_630_JUSTAS]	3.15 ± 0.049 kcal/mol	3.91 ± 0.029 kcal/mol	3.68 ± 0.042 kcal/mol
SAGGSAGGSAGGLEIEFWFFFPDEGYMIEVEWERDPDGPIEPTKITEIHPMPDGQPNPGFSAGGSAGGSAGG [r11_750_TrROS]	1.81 ± 0.059 kcal/mol	2 ± 0.04 kcal/mol	1.94 ± 0.087 kcal/mol
SAGGSAGGSAGGPKLVLKIKTEIKIEKKLEFDPETGELTEEIEIEIKIEIELEPLPEGLSAGGSAGGSAGGS [r10_376_TrROS_Hall]	1.32 ± 0.25 kcal/mol	3.24 ± 0.35 kcal/mol	2.83 ± 0.96 kcal/mol
SAGGKTKVIVVKVKPEMTVEEIAKKLAEELKKKGKKVKVEVKVIEKLPNGELYVKVTVKDGKLTIEPSAGGS [r8_7_TrROS_Hall]	1.12 ± 0.085 kcal/mol	1.42 ± 0.073 kcal/mol	1.35 ± 0.19 kcal/mol
SAGGSAMETIELKLEDGSTLTIERDPENPNTLTITFEDGRKITVTADSAEEALKKALELAKEGKLPSAGGSA [r15_38_TrROS_Hall]	4.36 ± 0.33 kcal/mol	4.58 ± 0.16 kcal/mol	4.6 ± 0.17 kcal/mol
KKIHIMFNNPQHVRRIAKKLGPNVKPDDVKKNPNGYYYFEIDLPNGRPIDIHIPSENMPAEDIVDYALEMLS [r1_279_TrROS]	0.88 ± 0.02 kcal/mol	0.86 ± 0.089 kcal/mol	0.894 ± 0.058 kcal/mol
SAGGGYRAVAVFERPDGRREVVFIEFESEEEALREAEEIARRFGLRLKELRVYPVEPLPPVRPELAGSAGGS [r8_364_TrMRF]	3.49 ± 0.089 kcal/mol	5.17 ± 0.083 kcal/mol	4.88 ± 0.09 kcal/mol
SAGGSAGGGSLKYTPGVHRLTYYDPATGTTTTLTFTSEEEALEYLKKKYPDVPWKRNPDGTWVLSAGGSAGG [r6_288_JUSTAS]	1.62 ± 0.059 kcal/mol	2.15 ± 0.12 kcal/mol	2.08 ± 0.25 kcal/mol
SAGGSAGGSAWIVIPAEDIKENLDEIEFRNGDGQEYRIKVDVQEHGDRPYVMIDIVPPGQPISAGGSAGGSA [r18_447_TrROS]	-0.413 ± 0.28 kcal/mol	0.882 ± 0.15 kcal/mol	0.472 ± 0.18 kcal/mol
SAGMKKVIELTIPVTGPEEVEELVAKLEEEEPAVPVERRPDPRLGAVRVVVEKKFPDSIVYITLTAAASAGG [r19_262_JUSTAS]	0.784 ± 0.042 kcal/mol	0.496 ± 0.071 kcal/mol	0.677 ± 0.065 kcal/mol
SAGGSAGGSAGMKTRTITVSVSPEESEEEVRERVEAELPPGSVVEVTRLPDGTVVVTVEESAGGSAGGSAGG [r17_20_JUSTAS]	0.401 ± 0.043 kcal/mol	1.99 ± 0.035 kcal/mol	1.55 ± 0.048 kcal/mol
SMTLVLDVSPDKAYKFKIEYKTPDGKRLTVDADTTMEPDGTARVPLKIPDSSVPPGTPLEIEKVEVTPLLSA [r9_359_JUSTAS]	-0.136 ± 0.085 kcal/mol	0.699 ± 0.099 kcal/mol	0.436 ± 0.066 kcal/mol
SAGGKIWIPMDFLKEIAEEGNIKEIEVNPDDGDMYTIKFPNLADKFGEPVTISIRRPPGGNPWIEIEPSAGG [r13_163_TrROS]	0.107 ± 0.1 kcal/mol	1.08 ± 0.17 kcal/mol	0.717 ± 0.15 kcal/mol
SAGGSAGGSAGGTKTIPFPIEEIEVEHNPDNNYYHVTIRFPDNGKPITFMFPPGDTITISAGGSAGGSAGGS [r10_819_TrROS]	0.812 ± 0.025 kcal/mol	0.836 ± 0.15 kcal/mol	0.868 ± 0.12 kcal/mol
SANGKEYTFTIEIRVRDPENGQPWTIRITVPIWYDPDDGKLDIDIDVTPTPGMPKEWAERIAKEIIEAISAG [r14_152_TrROS]	3.04 ± 0.11 kcal/mol	3.95 ± 0.048 kcal/mol	3.6 ± 0.076 kcal/mol
SAGGSAGGSDDSPEDAQKQQAKPEIKIKLHIRFPDGKEYDLDEPFEFPINGQPMRISSIDIVYSAGGSAGGS [r12_43_TrROS]	0.419 ± 0.037 kcal/mol	1.18 ± 0.21 kcal/mol	0.823 ± 0.11 kcal/mol
SAGGSAGGSAGMSALVLKVKIYYPKELFSPEEIEKIKSARIEVEPFLVEVKIDPETGELGSAGGSAGGSAGG [r17_310_TrMRF]	1.84 ± 0.03 kcal/mol	2.744 ± 0.021 kcal/mol	2.38 ± 0.061 kcal/mol
SAGGATLTLKPGDEITLTLTVTVTVTNEDGSTSTFTTTVTLTLRIEPAPPPPPVTVERDADGNLRVTLSAGG [r13_401_TrROS_Hall]	2.35 ± 0.089 kcal/mol	2.46 ± 0.091 kcal/mol	2.48 ± 0.18 kcal/mol
SAGGSAGGMVERPITLRVRVKTPEEVKKLVEELLKPTDAKADVVEEELEDGTVLVTLTIYVPEESAGGSAGG [r6_719_TrMRF]	1.67 ± 0.019 kcal/mol	1.58 ± 0.038 kcal/mol	1.62 ± 0.042 kcal/mol
SAGGMAIKDVRVEGGVLYVYRGDKLVAKIEPGAAQPPVLVRFPDGTVVAVPRSVALALNPETLEFFDVSAGG [r13_802_TrMRF]	1.24 ± 0.032 kcal/mol	1.44 ± 0.087 kcal/mol	1.43 ± 0.043 kcal/mol

Sequence	folding stability dG unfold [1]	folding stability dG unfold [2]	folding stability dG unfold [3]
SAGGSATLTLPEDVVKEVFTAKVGDKEYRPVVFRSPDDEWVLVLVLRRDPNGNTSAVAALLPKDAVSAGGSA [r15_986_TrMRF]	1.49 ± 0.047 kcal/mol	1.8 ± 0.16 kcal/mol	1.64 ± 0.13 kcal/mol
SAGGSAGGKPKKVKIKIEITYNKETGVVKIKIEVEVDGKTYTIEIEVKLKPGQTIEELLKKLLESAGGSAGG [r6_20_TrROS_Hall]	2.84 ± 0.24 kcal/mol	4.75 ± 0.34 kcal/mol	4.46 ± 0.54 kcal/mol
SAGGAEEIRKELGISPEEKVTVKLVVPEGGRPREFTVEMKPDELEKVLEELGVPPEKLEITEVEVIEESAGG [r13_681_JUSTAS]	-1.39 ± 0.38 kcal/mol	-0.121 ± 0.21 kcal/mol	-0.456 ± 0.21 kcal/mol
SGTRTVTVTGAVLSRLPDGTLVTDPGEAPVTVPVPPPKPRIEVPPELREKLREAAEKLGLELTEEDIETASA [r9_487_TrMRF]	-0.208 ± 0.36 kcal/mol	-0.896 ± 0.9 kcal/mol	-0.365 ± 0.26 kcal/mol
SNYINEPIYVPPSVDPEEVKKKVEERVEEIKKKLGLPPNISVSVTPVALPEGSVTYRVTVTVDGETYNSSSA [r9_776_JUSTAS]	0.77 ± 0.1 kcal/mol	0.488 ± 0.17 kcal/mol	0.683 ± 0.15 kcal/mol
SAGGMPREVAKEMIENDKDAKVTFTIYRFPDGPVPSVTVEVIEADVKDPDAFLESVPEGWLVLVEPASAGGS [r16_116_TrMRF]	0.245 ± 0.13 kcal/mol	1.17 ± 0.11 kcal/mol	0.769 ± 0.085 kcal/mol
SAKVSHLEFSLPNSVVTPEDLLAALEKLGFPPSKIKKMEIVKVKDNSYVVKIYLENEDGSDSIITLHLPSAG [r14_30_TrMRF]	0.515 ± 0.078 kcal/mol	2.39 ± 0.066 kcal/mol	1.78 ± 0.11 kcal/mol
SAGMPIRVRLLVERPALDPETGEPVVERREVVLTLHPEEIASGIPVEELAKELEKAFPGAKVTVLEVSSAGG [r19_110_TrMRF]	3.88 ± 0.11 kcal/mol	3.77 ± 0.044 kcal/mol	3.81 ± 0.047 kcal/mol
SAGGSAGGSAGMRTVEVKVVFKEGDKEFEKTITITLSPDDPSLEERAKEIAEKGIVVEIIRSAGGSAGGSAG [r3_30_JUSTAS]	1.62 ± 0.055 kcal/mol	1.99 ± 0.12 kcal/mol	1.75 ± 0.15 kcal/mol
SAGKIEVKKNYVVIEIKVEGKELKLVIKVKTKEEQEKALELVKKLEEELKKEGLEVEVKVEVFKEGEEVSAG [r5_823_TrROS_Hall]	2.2 ± 0.15 kcal/mol	3 ± 0.16 kcal/mol	2.8 ± 0.23 kcal/mol
SAGGMPEKVVVLRIRVTIRRDGEEEEIELEIRLPEEGQELTEEQLLALLRELLPPGYEIRRVEIEELSAGGS [r16_407_TrROS_Hall]	4.63 ± 0.077 kcal/mol	4.755 ± 0.043 kcal/mol	4.73 ± 0.048 kcal/mol
SAGGSAGGSAGGMKVTTINLPDGTTIEYYPETGSVTIHPSDGSVSTRPDLTLEDVLAALSAGGSAGGSAGGS [r10_569_JUSTAS]	2.38 ± 0.066 kcal/mol	1.81 ± 0.031 kcal/mol	2.07 ± 0.051 kcal/mol
SAGGSAGGEEIAKKLGIEKAEIVEVKDNKITLKVKLKNGEELKIELYIDKKTKEIKIVKIEKVPSAGGSAGG [r6_526_TrROS_Hall]	2.37 ± 0.079 kcal/mol	3.11 ± 0.075 kcal/mol	2.88 ± 0.23 kcal/mol
SAGGIRIRFWVPSPEEAREMAETIAKWLMEEHPGAKIKIEPKKVEPNPDNGYYRVEVPIKIVLPGQPISAGG [r13_585_TrROS]	1.36 ± 0.051 kcal/mol	1.89 ± 0.057 kcal/mol	1.7 ± 0.042 kcal/mol
SAGGSAKSIKAEELAKEIADLMQERNPNWRVEIEPQPGPGPMITVKIYHRDPNNGDQQPINTFTIRSAGGSA [r15_682_TrROS]	0.502 ± 0.099 kcal/mol	0.188 ± 0.15 kcal/mol	0.442 ± 0.15 kcal/mol
SAMLPEGERKPFLVKVKIETPEGTPEFEAPVITEPPQKIHVSIDFDIPEGEHKIKIEFFGPKLEFEFDISAG [r14_280_TrMRF]	1.87 ± 0.11 kcal/mol	2.42 ± 0.12 kcal/mol	2.29 ± 0.44 kcal/mol
SMVIEINEDGTVKVYLPEELKGLSAEEIEELIKKLFGPNVKIEKIEIFEPPPKLTEEEKEELKKLPKEEKSA [r9_1011_TrROS_Hall]	0.866 ± 0.17 kcal/mol	1.76 ± 0.14 kcal/mol	1.41 ± 0.33 kcal/mol
SAGGSAMKKIPKENVEKVIEFTDKNGKKITIVYNKKTGKAYIFDKKTKKVIEIDMTEDEIKKLLKSSAGGSA [r15_810_TrROS_Hall]	1.1 ± 0.023 kcal/mol	2.13 ± 0.061 kcal/mol	1.89 ± 0.054 kcal/mol
SAGKIKPGQKIKIKITSIEKLKDGTIKIKAEIELEEKGYKITIEAEIKYDKKTKKLTIKVKIKIEPKPSAGG [r19_342_TrROS_Hall]	3.26 ± 0.14 kcal/mol	4.14 ± 0.18 kcal/mol	3.88 ± 0.24 kcal/mol
SMFRPFPLPDGRPAYDFIIPGLELASSFFPETGRPVLVLRPGGRLGAAPLFAADLDVLFSRPPLVAVEPDSA [r9_205_TrMRF]	0.634 ± 0.11 kcal/mol	1.37 ± 0.17 kcal/mol	0.999 ± 0.14 kcal/mol
SAGMVEITVEVKEDGTVIVTIPATSPEEALEVAEEVARELAKQFGAEHTEFVIEPVPDDTLVLLVPIKKSAG [r5_772_TrMRF]	0.389 ± 0.065 kcal/mol	1.26 ± 0.11 kcal/mol	0.874 ± 0.23 kcal/mol
